For the assay, the target named is L-selectin (CD62L) on Jurkat T cells (human (endogenous in Jurkat)) (UniProt P14151). The assay can be described thus: flow cytometry on cells. On the technique in general: In flow cytometry, cells or beads pass a laser one at a time.
Chain of UniProt P14151 (P14151 39-372): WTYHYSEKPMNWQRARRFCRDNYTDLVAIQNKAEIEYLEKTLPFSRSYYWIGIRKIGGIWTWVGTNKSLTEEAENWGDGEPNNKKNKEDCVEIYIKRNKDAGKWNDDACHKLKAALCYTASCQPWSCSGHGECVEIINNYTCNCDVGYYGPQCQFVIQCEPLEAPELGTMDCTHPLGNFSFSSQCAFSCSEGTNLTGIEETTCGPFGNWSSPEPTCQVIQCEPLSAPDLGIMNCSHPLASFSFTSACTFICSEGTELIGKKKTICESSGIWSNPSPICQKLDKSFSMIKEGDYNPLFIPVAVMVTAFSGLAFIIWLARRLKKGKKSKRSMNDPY

With “Human PSGL-1-Fc chimera (from UniProt Q14242 42-320) (Fc fusion)”, the fold binding (MFI) with DREG-55 mAb, relative to the DREG-200 mAb sample stood at 1.6 fold.

“Human E-selectin-Fc chimera (from UniProt P16581 22-556) (Fc fusion)” yielded a fold binding (MFI) with DREG-55 mAb, relative to the DREG-200 mAb sample of 1.4 fold.

The values above are taken from article PMC3921101.
